{"source": "patent US20140072980A1", "key": {"[1]": {"molecular_target": "IgG1 Fc/Fc* bispecific antibody", "assay": "flow cytometry: antibody displayed on CHO cells by CSCP FcγR, detected with Anti-hFc"}, "[2]": {"molecular_target": "IgG1 Fc/Fc monospecific antibody", "assay": "flow cytometry: antibody displayed on CHO cells by CSCP FcγR, detected with Anti-hFc"}}}
{"substance": "human FcγRI (from UniProt P12314 16-374) (receptor)", "values": [{"measurement": "Mean Fluorescence Intensity (MFI)", "setting": "[1]", "value": 1800, "unit": "MFI"}, {"measurement": "Mean Fluorescence Intensity (MFI)", "setting": "[2]", "value": 1000, "unit": "MFI"}]}
